Reference: US20110158908A1 (SAPPORO MEDICAL UNIVERSITY, published 2011)

B1: Protein G Sepharose (other, UniProt P19909 303-497, looked up)
chain: TYKLILNGKTLKGETTTEAVDAATAEKVFKQYANDNGVDGEWTYDDATKTFTVTEKPEVIDASELTPAVTTYKLVINGKTLKGETTTEAVDAATAEKVFKQYANDNGVDGEWTYDDATKTFTVTEKPEVIDASELTPAVTTYKLVINGKTLKGETTTKAVDAETAEKAFKQYANDNGVDGVWTYDDATKTFTVTE
B2: cyclophilin B (CyPB) (enzyme)
chain: not shown

Assays:
[1] = biological target: T1, CSABP (cyclosporin A-binding protein), endogenous in MH14 cells (human, UniProt Q9H6S0 1-1430); assay: Protein G Sepharose control precipitation from MH14 cell extract, western blot with anti-CSABP antibody
T1 construct: also called CSABP protein; CSABP molecule
T1 sequence: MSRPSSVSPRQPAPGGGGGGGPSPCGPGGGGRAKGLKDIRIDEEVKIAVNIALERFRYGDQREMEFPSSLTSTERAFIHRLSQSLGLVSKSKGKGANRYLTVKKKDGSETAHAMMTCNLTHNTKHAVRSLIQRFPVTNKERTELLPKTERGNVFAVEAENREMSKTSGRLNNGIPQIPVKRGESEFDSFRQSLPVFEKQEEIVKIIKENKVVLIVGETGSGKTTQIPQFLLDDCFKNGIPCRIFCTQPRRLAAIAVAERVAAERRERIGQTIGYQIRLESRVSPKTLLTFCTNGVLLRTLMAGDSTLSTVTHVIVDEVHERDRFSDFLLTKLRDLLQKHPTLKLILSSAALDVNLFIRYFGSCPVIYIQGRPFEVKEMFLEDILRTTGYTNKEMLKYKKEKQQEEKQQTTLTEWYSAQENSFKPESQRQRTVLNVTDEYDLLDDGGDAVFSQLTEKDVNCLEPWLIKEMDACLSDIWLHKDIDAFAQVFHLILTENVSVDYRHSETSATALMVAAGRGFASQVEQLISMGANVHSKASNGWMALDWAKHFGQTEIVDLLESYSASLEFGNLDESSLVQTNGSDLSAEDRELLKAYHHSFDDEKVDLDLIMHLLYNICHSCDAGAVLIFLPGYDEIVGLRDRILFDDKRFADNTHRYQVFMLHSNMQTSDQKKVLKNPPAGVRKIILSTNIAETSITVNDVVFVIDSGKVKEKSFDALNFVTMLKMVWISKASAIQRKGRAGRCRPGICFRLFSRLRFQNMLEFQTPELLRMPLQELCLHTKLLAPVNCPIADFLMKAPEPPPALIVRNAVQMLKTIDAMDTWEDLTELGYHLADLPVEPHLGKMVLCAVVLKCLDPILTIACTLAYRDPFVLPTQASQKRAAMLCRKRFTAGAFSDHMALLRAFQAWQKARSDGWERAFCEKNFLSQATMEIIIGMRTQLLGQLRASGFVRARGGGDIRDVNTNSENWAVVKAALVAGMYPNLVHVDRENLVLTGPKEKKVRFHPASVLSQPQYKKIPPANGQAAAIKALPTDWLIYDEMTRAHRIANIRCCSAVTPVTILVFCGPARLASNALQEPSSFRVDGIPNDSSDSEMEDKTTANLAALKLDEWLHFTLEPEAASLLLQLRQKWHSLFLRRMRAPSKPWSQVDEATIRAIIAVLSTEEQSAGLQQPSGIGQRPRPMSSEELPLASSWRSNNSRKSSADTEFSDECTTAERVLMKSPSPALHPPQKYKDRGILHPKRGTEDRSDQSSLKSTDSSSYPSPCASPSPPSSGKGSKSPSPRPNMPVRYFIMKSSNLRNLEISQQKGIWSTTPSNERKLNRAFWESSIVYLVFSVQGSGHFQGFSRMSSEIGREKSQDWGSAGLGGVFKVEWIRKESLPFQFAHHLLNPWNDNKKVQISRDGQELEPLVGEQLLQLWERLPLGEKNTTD

[2] = biological target: B1; assay: Protein G Sepharose control precipitation from MH14 cell extract, western blot with anti-CyPB antibody

B1
binding result [1]: no binding

B2
binding result [2]: no binding
